Values of other authors, collected in patent publication US20150182494A1, “METHOD OF MANAGING DIABETIC FOOT ULCERS, PRESSURE ULCERS, VENOUS LEG ULCERS AND ASSOCIATED COMPLICATION” (INDUS BIOTECH PRIVATE LIMITED, priority 2012, published 2015).

Settings: patients treated with 3 or more tubes

**Q.** For becalpermin [Regranex gel], which “Mortality secondary to malignancy, in words” value is on record?
**A.** Its value is “increased rate of mortality secondary to malignancy”.
